Key:
p60ΔCD-GFP-HA = target: T1, p60ΔCD-GFP-HA (UniProt P42212 1-238 = GFP, limits assumed); assay: co-immunoprecipitation in 293T transient transfections
T1 construct: GFP introduced in-frame into p60ΔCD-HA; p60 limits deduced as for p60ΔCD-HA; also called chimeric p60 receptor with the cytoplasmic domain replaced by GFP
Description: The PCR product was digested with BamHI and EcoRI and cloned into pcDNA3. The PCR fragments containing the receptor fragments were then introduced into this plasmid using the EcoRI and XhoI sites. For the GFP/CFP/YFP chimeras, the fragments were amplified by PCR and introduced in-frame into the XhoI and XbaI sites of p60ΔCD-HA. 293T cells were transfected with Fugene 6 (Boehringer Mannheim) as per manufacturer's protocol. Cells were lysed in 150 mM NaCl, 20 mM Tris.Cl [pH 7.5], 1 mM EDTA, 30 mM NaF, 2 mM β-glycerophosphate, 1 mM sodium orthovanadate, 5 mM iodoacetamide, 2 mM dithiothreitol (DTT), 1% TRITON X-100 and protease inhibitors (Boehringer Mannheim). After pre-clearing with protein G agarose beads (Boehringer Mannheim) and normal mouse IgG, proteins were immunoprecipitated from the lysates with […] anti-GFP and protein G agarose beads. Immune complexes were washed twice with lysis buffer containing 0.5 M NaCl and then three times with regular lysis buffer. Immune-complexes were resolved on Tris/Glycine gels (Novex).

TNFα, biotinylated form = target: T2, TNFα, biotinylated form (human, UniProt P01375 77-233, biotinylated); assay: biotinylated TNFα staining normalized to HA staining
T2 construct: also called biotinylated human TNF-α; Bt-TNF-α
T2 sequence (P01375 77-233 limits assumed): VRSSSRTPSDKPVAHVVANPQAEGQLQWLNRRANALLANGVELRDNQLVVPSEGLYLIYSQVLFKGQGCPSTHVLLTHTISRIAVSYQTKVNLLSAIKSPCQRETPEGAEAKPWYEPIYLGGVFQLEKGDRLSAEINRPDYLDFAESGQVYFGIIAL

B1: p60ΔCD-HA K32A (receptor, not shown: small tags and cut ends)
chain: LVPHLGDREKRDSVCPQGKYIHPQNNSICCTACHKGTYLYNDCPGPGQDTDCRECESGSFTASENHLRHCLSCSKCRKEMGQVEISSCTVDRDTVCGCRKNQYRHYWSENLFQCFNCSLCLNGTVHLSCQEKQNTVCTCHAGFFLRENECVSCSNCKKSLECTKLCLPQIENVKGTEDSGTTVLLPLVIFFGLCLLSLLFIGLMYRYQRWK
notes: Mutant of p60ΔCD-HA; numbers count on mature p60
Q: Does B1 bind (p60ΔCD-GFP-HA)?
A: no binding

Q: Does B1 bind (TNFα, biotinylated form)?
A: no binding

Reference: patent US20100041596A1 (published 2010)
